Literature values as cited in PMC3145095.

Target: CD8αα (Mus musculus) (UniProt P01731)
Chain of UniProt P01731 (P01731 28-196): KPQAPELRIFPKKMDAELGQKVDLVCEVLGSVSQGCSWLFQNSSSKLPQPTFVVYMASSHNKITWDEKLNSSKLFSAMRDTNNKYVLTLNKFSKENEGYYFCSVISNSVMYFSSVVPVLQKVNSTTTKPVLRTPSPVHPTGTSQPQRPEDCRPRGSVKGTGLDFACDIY

For “Thymus leukaemia antigen (TL) (from UniProt P14432)”, the Kd is given as 12 µM.
